Source: article PMC12671738
Where “and” joins values, the source holds several entries; their conditions need not be identical. Identical values can stand only once.

Experiments:
[1] = target: p33 protein of citrus tristeza virus (CTV) (citrus tristeza virus); assay: SDS-PAGE and western blot of SDS-resistant oligomers; crude extract: leaf discs of agroinfiltrated N. benthamiana macerated directly in SDS loading buffer with 8 M urea; blot with anti-p33 antibody; empty vector as control
[2] = target: p33 protein of citrus tristeza virus (CTV) (citrus tristeza virus); assay: SDS-PAGE and western blot of SDS-resistant oligomers; p33 immunoprecipitated from N. benthamiana leaf lysate with anti-p33 antibody on protein A magnetic beads, eluted in SDS loading buffer with 100 mM DTT and 8 M urea at 70 °C; blot with anti-p33 antibody

With “p33 protein of citrus tristeza virus (CTV) (natural protein)” the stoichiometry N [1] was 2 and 4 and the stoichiometry N [2] was 2 and 4.
